Experimental data taken from publication PMC4175280, “Characterization of proanthocyanidin metabolism in pea (Pisum sativum) seeds” (BMC Plant Biology, 2014).

Legend:
[1] = biological target: T1, PsLAR (Lathyrus oleraceus, UniProt A0A076G360); test: coupled PsDFR/PsLAR assay, LC-MS of product; format: biochemical; details: NADPH, pH 6, 40°C
T1 construct: gene LAR
T1 sequence (A0A076G360 1-351): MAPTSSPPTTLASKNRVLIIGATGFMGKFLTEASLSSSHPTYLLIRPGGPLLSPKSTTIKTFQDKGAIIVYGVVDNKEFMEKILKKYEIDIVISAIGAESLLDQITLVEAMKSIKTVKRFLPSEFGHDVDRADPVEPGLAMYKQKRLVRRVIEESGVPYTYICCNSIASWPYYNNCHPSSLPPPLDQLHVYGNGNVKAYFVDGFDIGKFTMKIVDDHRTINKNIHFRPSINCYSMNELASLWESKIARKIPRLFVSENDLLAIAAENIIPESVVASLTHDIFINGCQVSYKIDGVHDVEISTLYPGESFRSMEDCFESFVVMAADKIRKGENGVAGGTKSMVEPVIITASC

[2] = substrate: Oc1cc(O)c2cc(O)c(-c3ccc(O)c(O)c3)[o+]c2c1; test: HPLC-DAD of cis-flavan-3-ol product, Michaelis-Menten; format: biochemical, Lathyrus oleraceus; details: 20 mM NADPH, 100 mM Tris-HCl pH 7, 42°C, 20 min
Excerpt: (§1) HPLC-DAD of cis-flavan-3-ol product, Michaelis-Menten on PsANR

[3] = substrate: Oc1ccc(-c2[o+]c3cc(O)cc(O)c3cc2O)cc1; test: as above; format: biochemical, Lathyrus oleraceus; details: 20 mM NADPH, 100 mM Tris-HCl pH 7, 42°C, 20 min
Excerpt: as §1

[4] = substrate: Oc1cc(O)c2cc(O)c(-c3cc(O)c(O)c(O)c3)[o+]c2c1; test: as above; format: biochemical, Lathyrus oleraceus; details: 20 mM NADPH, 100 mM Tris-HCl pH 7, 42°C, 20 min
Excerpt: as §1

Oc1cc(O)c2c(c1)O[C@H](c1cc(O)c(O)c(O)c1)[C@@H](O)C2 [gallocatechin]
coupled PsDFR/PsLAR assay, LC-MS of product ([1]; substrate made in situ from dihydromyricetin by PsDFR): co-incubation of PsDFR and PsLAR could synthesize compounds displaying [M + H]^+ ion for CT

Oc1cc(O)c2c(c1)O[C@H](c1ccc(O)c(O)c1)[C@@H](O)C2 [(+)-catechin]
coupled PsDFR/PsLAR assay, LC-MS of product ([1]; substrate made in situ from dihydroquercetin by PsDFR): Only co-incubation of PsDFR and PsLAR could synthesize compounds displaying [M + H]^+ ion for CT

B1: PsANR (Lathyrus oleraceus) (protein)
chain: MASIKEVGKKKACVIGGTGFVASILIKQLLEKGYAVNTTVRDLDNPKKISHLVALKSLGELNLFKAELTVDGDFDAPIAGCELVFQLATPVNFASQDPENDMIKPAIKGVLNVLKACAKAKEVKRVILTSSAAAVTINELKGEDHVMDETNWSDVEFLNAAKPPTWGYPASKVLAEKAAWEFAEKNDIDLITVIPTLTMGPYLTQDMPSSVGLAMSLITGNDFLVNALKGMQFLSGSISITHVEDICRAHIFVAEKESASGRYICCAQNTCVPELAKFFSKRYPQYKVPTKFEDCPSKAKLIIFFEKLIKEGFGFKYGIGETYAQTIEYLKIKGVLKK
Km [2]: 37.0 ± 0.2 µM
kcat/Km [2]: 13.5 M⁻¹ s⁻¹
Km [3]: 39.0 ± 0.1 µM
kcat/Km [3]: 30.7 M⁻¹ s⁻¹
Km [4]: 183.6 ± 0.2 µM
kcat/Km [4]: 4.3 M⁻¹ s⁻¹
